Laboratory results from patent US20250213684A1, “COMBINATION THERAPIES COMPRISING ANTIBODY MOLECULES TO TIM-3” (Novartis AG, priority 2015, published 2025).

Tests used:
[1] = test system: PD-L1 IgV/TIM-3 mucin construct; experiment: Domain analysis: binding to PD-L1 IgV/TIM-3 mucin chimeric construct; conditions: recombinant construct with TIM-3 IgV domain replaced
Procedure: TIM-3 has an extracellular IgV domain and a mucin domain. […] 3A. […] The dissociation constant (KD) values were calculated for each tested antibody for the recombinant construct are shown in Table 8.

human TIM-4 = target: T1, human TIM-4 (Homo sapiens, UniProt Q96H15); experiment: Flow cytometry binding to human TIM-4 expressed in CHO cells
T1 construct: expressed in transfected cells; host or cells: CHO cells
T1 sequence (Q96H15 25-378): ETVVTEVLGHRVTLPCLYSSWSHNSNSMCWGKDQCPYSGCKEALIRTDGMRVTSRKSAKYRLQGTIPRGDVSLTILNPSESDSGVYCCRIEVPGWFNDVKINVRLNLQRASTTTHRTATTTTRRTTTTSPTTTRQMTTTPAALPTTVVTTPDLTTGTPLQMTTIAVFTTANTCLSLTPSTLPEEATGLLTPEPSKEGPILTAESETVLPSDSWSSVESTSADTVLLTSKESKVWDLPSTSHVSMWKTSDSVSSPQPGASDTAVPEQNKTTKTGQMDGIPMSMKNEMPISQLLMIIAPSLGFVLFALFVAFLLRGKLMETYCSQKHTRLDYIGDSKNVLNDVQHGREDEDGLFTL
From the text: (§1) Human TIM-3 has about 23% sequence identity with human TIM-4. Murine TIM-3 has about 66% sequence identity with human TIM-3 and 64% sequence identity with cynomolgus TIM-3.

K562 cells = experiment: In vitro cytotoxic activity of purified NK cells against K562 cells; type: cell-based; conditions: antibody 10 μg/mL, 4-hour incubation with target cells
Procedure: 5.1 TIM-3 blockade enhances in vitro cytotoxic activity of purified NK cells TIM-3 is highly expressed endogenously on NK (natural killer) cells; its expression is further induced on activated NK cells. TIM-3 may act to restrain NK cell function, as do other inhibitory receptors. See Ndhlovu et al., Blood 119:3734, 2012, and Silva et al., Cancer Immunol Res 2:410, 2014.
In this assay. NK cells were purified from whole blood by negative bead selection and then incubated with antibody (10 μg/mL) at 37° C. After 1 hour, target K562 cells were added. After a 4-hour incubation at 37° C., the percent of K562 cell killing was measured.

[2] = test system: naïve T cell / dendritic cell co-culture; experiment: Proliferation in autologous T-DC co-cultures (CFSE); type: cell-based; conditions: 0.01-25 μg/mL, four days, anti-CD3/CD28; vs no antibody and mouse IgG1 control
From the text: TIM-3 can be expressed on dendritic cells (DCs) and T cells. Naïve T cells and dendritic cells were isolated from donor samples. Naïve T cells and conventional DCs were cocultured for four days in the presence of anti-CD3/CD28. […] Cell proliferation was detected by a CFSE proliferation assay, which relies on dilution of CFSE staining to detect proliferating cells.

cynomolgus TIM-3 = experiment: Flow cytometry binding to cells transfected with cynoTIM-3; design: species or system cynomolgus monkey; conditions: overall statement on the binding experiments of Example 1
Procedure: (§2) Panels of anti-TIM-3 antibodies were assayed for binding to TIM-3 expressing cells.

[3] = target: T2, TIM-3 binding to PtdSer (phosphatidylserine) (Homo sapiens, UniProt Q8TDQ0); experiment: Blocking of TIM-3-Ig binding to PtdSer on anti-CD95-treated WR19L(Fas) cells
T2 construct: huTIM-3 extracellular domain fused to an Ig Fc region
Procedure: TIM-3 binds to PtdSer (phosphatidylserine), a lipid that is typically present on the surface of apoptotic cells and not normal cells. Anti-CD95-treated WR19L(Fas) cells were cultured under conditions that promote PtdSer accumulation on the cell surface (flipping of PtdSer from the inner membrane to external exposure upon induction of apoptosis). TIM-3-Ig (huTIM-3 extracellular domain fused to an Ig Fc region) was added to the cells, and binding of TIM-3-Ig to the cells was assayed in the presence of various antibodies.

human TIM-3 = target: T3, human TIM-3 (Homo sapiens, UniProt Q8TDQ0); experiment: Flow cytometry binding to cells transfected with human TIM-3; conditions: overall statement on the binding experiments of Example 1
T3 construct: expressed in transfected cells
Procedure: as §2

murine TIM-3 = target: T4, murine TIM-3 (Mus musculus, UniProt Q8VIM0); experiment: Flow cytometry binding to murine TIM-3 expressed in cells
T4 construct: expressed in transfected cells
From the text: as §1

[4] = test system: IL-12 stimulated CD4+ cells; experiment: IFN-gamma secretion and proliferation of IL-12 stimulated CD4+ cells; type: cell-based; conditions: IL-12 stimulated CD4+ T cells
Procedure: The ability of four antibodies to enhance IFN-gamma secretion and proliferation of IL-12 stimulated CD4+ cells was assayed. This assay used the observation that a high dose of IL-12 induces expression of TIM-3 and yields an exhausted phenotype in T cells (see Yang et al., J. Clin. Invest. 122:4 p 1271 2012). […] After PMA/ionomycin restimulation and fixation and permeabilization of cells, the resulting IFN-gamma levels were measured by flow cytometry (y axis) and proliferation was measured by CFSE fluorescence (x axis). FIG. 5B quantifies IFN-gamma expression in cells exposed to these four antibodies.

T4 sequence (Q8VIM0 20-281): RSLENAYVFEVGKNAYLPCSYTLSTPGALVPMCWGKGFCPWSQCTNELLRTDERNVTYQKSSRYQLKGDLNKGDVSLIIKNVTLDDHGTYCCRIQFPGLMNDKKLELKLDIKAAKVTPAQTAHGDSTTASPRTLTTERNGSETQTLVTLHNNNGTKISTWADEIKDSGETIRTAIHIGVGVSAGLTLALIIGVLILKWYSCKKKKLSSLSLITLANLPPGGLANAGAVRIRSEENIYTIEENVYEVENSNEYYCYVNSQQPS

B1: ABTIM3: murine anti-TIM-3 antibody; VH SEQ ID NO: 1, VL SEQ ID NO: 2 (antibody, V domains shown)
VH: QVQLQQPGAELVKPGASVKMSCKASGYTFTSYNMHWIKQTPGQGLEWIGDIYPGNGDTSYNQKFKGKATLTADKSSSTVYMQLSSLTSEDSAVYYCARVGGAFPMDYWGQGTSVTVSS
VL: DIVLTQSPASLAVSLGQRATISCRASESVEYYGTSLMQWYQQKPGQPPKLLIYAASNVESGVPARFSGSGSGTDFSLNIHPVEEDDIAIYFCQQSRKDPSTFGGGTKLEIK
[1]
  binding to the chimeric protein of FIG. 3A: do not substantially bind
Human TIM-4
  binding to human TIM-4: does not bind
K562 cells
  percent of K562 cell killing by NK cells: elevated levels of K523 cell killing relative to anti-TIM-3 #2 or the isotype control
[2]
  proliferating cells (CFSE-diluted cells): increase in proliferating cells
Cynomolgus TIM-3
  affinity for cynomolgus TIM-3: sub-nanomolar
[3]
  inhibition of binding of TIM-3 to PtdSer: inhibit the binding of TIM-3 to PtdSer
Human TIM-3
  affinity for human TIM-3: sub-nanomolar
Murine TIM-3
  cross-reactivity with murine TIM-3: not cross-reactive
[4]; CFSE
  proliferation: enhances
[4]; flow cytometry
  IFN-gamma secretion: enhances
